Values quoted from earlier work in PMC11678748.

Molecular target: KCCYSL peptide (synthetic construct)

- Kd: 0.295 µM
Substance: HER2 (from UniProt P04626)
